Measurements taken from US20230220071A1 (Hoffmann-La Roche, published 2023).

Target: T1, human transferrin receptor (BIAcore, construct not stated) (human, UniProt P02786 89-760)
T1 construct: also called huTfR
Test: SPR, 25 C

T1 sequence (P02786 89-760): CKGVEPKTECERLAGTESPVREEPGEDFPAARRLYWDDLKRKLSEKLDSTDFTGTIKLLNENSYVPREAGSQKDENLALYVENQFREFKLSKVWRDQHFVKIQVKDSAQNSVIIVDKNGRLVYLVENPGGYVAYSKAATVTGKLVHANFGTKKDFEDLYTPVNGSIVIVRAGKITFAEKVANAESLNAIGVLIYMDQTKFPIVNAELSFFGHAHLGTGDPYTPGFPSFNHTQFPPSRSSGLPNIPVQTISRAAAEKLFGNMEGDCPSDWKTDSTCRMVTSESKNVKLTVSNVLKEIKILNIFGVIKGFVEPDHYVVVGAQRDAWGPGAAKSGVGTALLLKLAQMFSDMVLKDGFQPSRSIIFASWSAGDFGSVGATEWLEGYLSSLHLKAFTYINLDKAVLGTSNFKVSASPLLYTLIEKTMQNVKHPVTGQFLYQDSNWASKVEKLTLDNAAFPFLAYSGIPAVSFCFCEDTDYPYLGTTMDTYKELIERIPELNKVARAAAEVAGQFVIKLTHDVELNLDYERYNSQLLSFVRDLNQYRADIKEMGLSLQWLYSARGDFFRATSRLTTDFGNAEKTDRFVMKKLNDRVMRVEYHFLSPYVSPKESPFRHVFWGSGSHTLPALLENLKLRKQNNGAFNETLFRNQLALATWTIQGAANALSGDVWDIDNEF

| koff [s⁻¹] | Binder |
| --- | --- |
| 0.00194 | clone 299 VH 0 (rb) / VL 5 (antibody, V domains shown) VH: QSMEESGGRLVTPGTPLTLTCTVSGFSLSSYAMSWVRQAPGKGLEWIGYIWSGGSTDYASWAKGRFTISKTSTTVDLKITSPTTEDTATYFCARRYGTSYPDYGDANGFDPWGPGTLVTVSS VL: DIQMTQSPSSLSASVGDRVTITCRASQSISSYLSWYQQKPGKAPKLLIYRASTLASGVPSRFSGSGSGTDFTLTISSLQPEDFATYYCQQSYSSSNVDNTFGGGTKVEIK |
| 0.00463 | clone 299 VH 0 (rb) / VL 7 (antibody, V domains shown) VH: QSMEESGGRLVTPGTPLTLTCTVSGFSLSSYAMSWVRQAPGKGLEWIGYIWSGGSTDYASWAKGRFTISKTSTTVDLKITSPTTEDTATYFCARRYGTSYPDYGDANGFDPWGPGTLVTVSS VL: AIQLTQSPSSLSASVGDRVTITCRASQSISSYLAWYQQKPGKAPKLLIYRASTLASGVPSRFSGSGSGTDFTLTISSLQPEDFATYYCQQSYSSSNVDNTFGGGTKVEIK |
| 0.00139 | clone 299 VH 0 (rb) / VL 8 (antibody, V domains shown) VH: QSMEESGGRLVTPGTPLTLTCTVSGFSLSSYAMSWVRQAPGKGLEWIGYIWSGGSTDYASWAKGRFTISKTSTTVDLKITSPTTEDTATYFCARRYGTSYPDYGDANGFDPWGPGTLVTVSS VL: AYQLTQSPSSLSASVGDRVTITCRASQSISSYLSWYQQKPGKAPKLLIYRASTLASGVPSRFSGSGSGTDFTLTISSLQPEDFATYYCQQSYSSSNVDNTFGGGTKVEIK |
| 0.00188 | clone 299 VH 0 (rb) / VL 10 (antibody, V domains shown) VH: QSMEESGGRLVTPGTPLTLTCTVSGFSLSSYAMSWVRQAPGKGLEWIGYIWSGGSTDYASWAKGRFTISKTSTTVDLKITSPTTEDTATYFCARRYGTSYPDYGDANGFDPWGPGTLVTVSS VL: DIQMTQSPSSLSASVGDRVTITCRASQSISSYLSWYQQKPGKAPKLLIYRASTLASGVPSRFSGSRSGTDFTLTISSLQPEDFATYYCQQSYSSSNVDNTFGGGTKVEIK |
| 0.0019 | clone 299 VH 0 (rb) / VL 6 (antibody, V domains shown) VH: QSMEESGGRLVTPGTPLTLTCTVSGFSLSSYAMSWVRQAPGKGLEWIGYIWSGGSTDYASWAKGRFTISKTSTTVDLKITSPTTEDTATYFCARRYGTSYPDYGDANGFDPWGPGTLVTVSS VL: AIQLTQSPSSLSASVGDRVTITCRASQSISSYLSWYQQKPGKAPKLLIYRASTLASGVPSRFSGSGSGTDFTLTISSLQPEDFATYYCQQSYSSSNVDNTFGGGTKVEIK |
| 0.00149 | clone 299 VH 0 (rb) / VL 17 (antibody, V domains shown) VH: QSMEESGGRLVTPGTPLTLTCTVSGFSLSSYAMSWVRQAPGKGLEWIGYIWSGGSTDYASWAKGRFTISKTSTTVDLKITSPTTEDTATYFCARRYGTSYPDYGDANGFDPWGPGTLVTVSS VL: AIQLTQSPSSLSASVGDRVTITCRASQSISSYLAWYQQKPGKAPKLLIYRASTLASGVPSRFSGSGSGTDFTLTISSLQPEDFATYYCQQTYSSSNVDNTFGGGTKVEIK |
| 0.00252 | clone 299 VH 9 / VL 9-NYA (antibody, V domains shown) VH: QQLLESGGGLVQPGGSLRLSCAASGFTFSSYAMSWVRQAPGKGLEWVGYIWSGGSTDYADSVKGRFTISRDNSKNTLYLQMNSLRAEDTAVYYCAKRYGTSYPDYGDANGFDPWGQGTLVTVSS VL: AIQLTQSPSSLSASVGDRVTITCRASQSISSYLAWYQQKPGKAPKLLIYRASTLASGVPSRFSGSGSGTDFTLTISSLQPEDFATYYCQQNYASSNVDNTFGGGTKVEIK |
| 0.00541 | clone 299 VH 0 (rb) / VL 12 (antibody, V domains shown) VH: QSMEESGGRLVTPGTPLTLTCTVSGFSLSSYAMSWVRQAPGKGLEWIGYIWSGGSTDYASWAKGRFTISKTSTTVDLKITSPTTEDTATYFCARRYGTSYPDYGDANGFDPWGPGTLVTVSS VL: DIQMTQSPSSLSASVGDRVTITCRASQSISSYLAWYQQKPGKAPKLLIYRASTLASGVPSRFSGSRSGTDFTLTISSLQPEDFATYYCQQHYSSSNVDNTFGGGTKVEIK |
